Drawing on the Immune Epitope Database (IEDB), this text covers Kd for 18 sequences.

pKd: −log10 of the molar value.

Assay [1] has as its target HLA-A*26:01. Briefly: IEDB peptide-MHC binding, purified MHC/competitive/radioactivity; filed as Kd, often an IC50 or EC50 that approximates it; ≥ and ≤ were set here for values at or beyond the usual limits of such assays. Conditions: source organism: Mammarenavirus brazilense.
In assay [2] the target is HLA-A*01:01. The assay is described as above. The conditions noted are these: source organism: Mammarenavirus brazilense.
The target in assay [3] is HLA-A*30:01. The description is as above. The conditions noted are these: source organism: Mammarenavirus brazilense.
Assay [4] has as its target HLA-A*29:02. The assay is described as above. The conditions noted are these: source organism: Mammarenavirus brazilense.
The target in assay [5] is HLA-A*32:01. Described as above.
For assay [6], the target named is HLA-A*30:02. Described as above. The conditions noted are these: source organism: Mammarenavirus brazilense.
For assay [7], the target named is HLA-B*44:02. Described as above.
For assay [8], the target named is HLA-B*40:02. The assay is described as above.
Assay [9] deals with HLA-B*44:03. Described as above.
The target of assay [10] is HLA-B*45:01. Described as above.
Assay [11] concerns the target HLA-B*18:01. Described as above.
Assay [12] addresses HLA-B*40:01. Described as above.
Assay [13] deals with HLA-B*18:01. Briefly: IEDB peptide-MHC binding, purified MHC/direct/fluorescence; filed as Kd, often an IC50 or EC50 that approximates it; ≥ and ≤ were set here for values at or beyond the usual limits of such assays. The conditions noted are these: source organism: West Nile virus.
The target of assay [14] is HLA-B*15:01. The experiment in a line: IEDB peptide-MHC binding, purified MHC/competitive/radioactivity; filed as Kd, often an IC50 or EC50 that approximates it; ≥ and ≤ were set here for values at or beyond the usual limits of such assays. Conditions: source organism: Vaccinia virus WR.
For assay [15], the target named is HLA-A*02:12. Briefly: IEDB peptide-MHC binding, purified MHC/direct/fluorescence; filed as Kd, often an IC50 or EC50 that approximates it; ≥ and ≤ were set here for values at or beyond the usual limits of such assays. The conditions noted are these: source organism: Influenza C virus.
The target in assay [16] is HLA-A*01:01. Described as above. Conditions: source organism: Influenza A virus (A/swine/Hong Kong/273/1994(H1N1)).
For assay [17], the target named is HLA-A*03:01. The description is as above. The conditions noted are these: source organism: Influenza A virus (A/swine/Hong Kong/273/1994(H1N1)).
Assay [18] deals with HLA-B*15:01. Described as above. Conditions: source organism: Influenza A virus (A/swine/Hong Kong/273/1994(H1N1)).
Assay [19] concerns the target HLA-B*07:02. The assay is described as above. Conditions: source organism: Influenza A virus (A/swine/Hong Kong/273/1994(H1N1)).
In assay [20] the target is HLA-B*58:01. Described as above. The conditions noted are these: source organism: Influenza A virus (A/swine/Hong Kong/273/1994(H1N1)).
For assay [21], the target named is HLA-B*27:05. The description is as above. Conditions: source organism: Influenza A virus (A/swine/Hong Kong/273/1994(H1N1)).
Assay [22] deals with HLA-B*15:01. Briefly: IEDB peptide-MHC binding, purified MHC/competitive/fluorescence; filed as Kd, often an IC50 or EC50 that approximates it; ≥ and ≤ were set here for values at or beyond the usual limits of such assays. The conditions noted are these: source organism: Paracoccus denitrificans PD1222.
Where [23] appears, read: source organism: Mammarenavirus brazilense.
Setting [24] is: source organism: Vaccinia virus WR.
The mark [25] stands for this setting: source organism: Dengue virus 2 Jamaica/1409/1983.
Setting [26] is: source organism: Mammarenavirus guanaritoense.
[27] abbreviates: source organism: SARS coronavirus Tor2.
Setting [28] is: source organism: Mammarenavirus machupoense.
The mark [29] stands for this setting: source organism: Lymphocytic choriomeningitis virus (strain Armstrong).

What is called pKd is −log10 of the Kd, conventionally taken in molar units. In the case of EWIFRALKY, the pKd is 5.15 in assay [1]; at most 4.43 in [2]; at most 4.42 in [3]; 6.74 in assay [4]; at most 4.11 in assay [5] (setting [23]); 5.11 in assay [6].

Take DESGLNISGY: the pKd in assay [7] (setting [23]) is 4.89; in assay [8] (setting [23]), at most 4.15; in assay [9] (setting [23]), 5.11; in [10] (setting [23]), at most 4.15; in assay [11] (setting [23]), 6.70; in assay [12] (setting [23]) it was at most 4.16.

The sequence NEAKVLELL gave a negative-log Kd (pKd) in [13] of 7.42.

In the case of RLIVLFEVF, the figures for the pKd in assay [14] and in assay [5] (setting [24]) were 8.16 and 7.90, respectively.

Consider MSIMPVLAY, for which the results for the pKd in assay [14] and in [5] (setting [24]) were 8.86 and 7.00, respectively.

With ATMANEMGF, the pKd in [5] (setting [25]) is 6.86.

Take GMFNMLSTV: the pKd in assay [15] is 7.31; in assay [16] it was at most 4.70; in assay [17] it was at most 4.70; in [18], 6.98; in assay [19], at most 4.70; in [20] it was at most 4.70. Also, in assay [21], the pKd was 5.00.

For ALAAAGAAY, in assay [22], the pKd is 6.91.

In the case of TEQFINYCL, the pKd was 7.00 in assay [7] (setting [26]); 7.49 in assay [8] (setting [26]); 6.38 in [9] (setting [26]); 6.89 in assay [10] (setting [26]); 6.40 in assay [11] (setting [26]); 6.51 in [12] (setting [26]).

As for DIMALIVSI, the pKd in assay [5] (source organism: Vaccinia virus) was 6.94.

For the sequence QVLMMRTTW, the pKd in assay [5] (setting [25]) is 7.13.

As for METDFLELAM, the pKd was 7.61 in [7] (setting [27]); 6.54 in assay [8] (setting [27]); 7.96 in assay [9] (setting [27]); 6.91 in [10] (setting [27]); 7.42 in [11] (setting [27]); 7.81 in [12] (setting [27]).

In the case of QELLIQQWI, the negative logarithm of the Kd (pKd) in assay [7] (setting [27]) was 7.04; in [8] (setting [27]) it was 7.21; in [9] (setting [27]) it was 4.87; in assay [10] (setting [27]), 6.50; in [11] (setting [27]) it was 5.06; in [12] (setting [27]), 6.73.

In the case of EEPVALLPLS, the pKd was 5.07 in assay [7] (setting [28]); 5.36 in assay [8] (setting [28]); 5.53 in assay [9] (setting [28]); 6.10 in assay [10] (setting [28]); 4.81 in assay [11] (setting [28]); 5.29 in assay [12] (setting [28]).

As to EEVVLKNGEL, the pKd in assay [7] (setting [27]) was 7.33; in assay [8] (setting [27]), 7.86; in assay [9] (setting [27]), 7.83; in [10] (setting [27]), 5.88; in assay [11] (setting [27]), 6.42; in assay [12] (setting [27]), 8.20.

Consider REGVFVFNG, for which the pKd in [7] (setting [27]) was 5.32; in assay [8] (setting [27]), 6.65; in [9] (setting [27]) it was 6.53; in assay [10] (setting [27]), 6.87; in [11] (setting [27]) it was at most 4.41; in assay [12] (setting [27]), 5.81.

As to KIDFLFFII, in assay [5] (source organism: Vaccinia virus Copenhagen), the pKd is 8.71.

Take REAVESCPLM: the pKd in [7] (setting [29]) was 6.28; in assay [8] (setting [29]), 8.01; in assay [9] (setting [29]), 5.66; in [10] (setting [29]), 5.09; in assay [11] (setting [29]), 5.52; in assay [12] (setting [29]), 6.98.
